Source: article PMC2885523

Target: MP81, in vitro-synthesized, [35S]-labeled (T. brucei)
Test: co-IP

## TbTUT4-MD (TbTUT4 TUTase with grafted RET2 middle domain), in vitro-synthesized, [35S]-labeled (from UniProt Q381M1;Q86MV5)
  fold increase of immunoprecipitation on addition of MP81: 2 fold
